Assay results as given in the DeepSol protein solubility set.

test: soluble on expression in E. coli; label from the status in PepcDB or PDB records

Sequence | soluble on expression in E. coli
MSLSEELSFSAMVKAELALLTPELPCCRRMELAGLVRALGRLELSGRGRFALTLSTDSAPVSRKVIRLLKSVSPVRYEVMVMRRRKLRKNLVYRVHIPHQPGVAELLQLAGFIDEAGRPADWVEPPELANDHCRRAFLRGTFLGSGWVAGPEKQHHLEITTTATEAADALGQMLFRGGIAARMVARRESLVLYIKEADQIIRFLGLVGAHQALLRYEEVRVIKEMKNQVNRQVNAEVANMTKQADAAARQVEAIKRLEAAGALERVSPPLRELAGLRLAYPDASLKELGELCRPPVSKSGAAHRMRQLMALAESLEEGHHHHHH | soluble
MSLSEILTIGEPIVTFASKEPDVSLRDALEFHKILGGAELNVAIGAQRLGHSVDYISQVGEEPLGDYVIKTIKEHHVGTRYITRDADYWTAFQLKDRVTQGNPTTQNYRRGSAAAHLTPAVVDQIDLTDVRAAHMSGIFPAISATAEAAFRTLLKRLEAANILTTFDPNLRPTLWPSRGKMVTTLNELAGHAEIVLPGVEEGEILMGSTDPEKIADFYLRGARTKVVIVKVGPAGAYVKQQSGESYTVTGFKVAQVADTVGAGDGFAMGVLTALLEHKSLRSAVMRGNAVGALQVQTYGDNDGYPTPAGLQAFYQQEGVVEEGHHHHHH | not soluble
MSLSEIVVSKFGGTSVADFDAMNRSADIVLSDANVRLVVLSASAGITNLLVALAEGLEPCERFEKLDAIRNIQFAILERLRYPNVIREEIERLLENITVLAEAAALATSPALTDELVSHGELMSTLLFVEILRERDVQAQWFDVRKVMRTNDRFGRAEPDIAALAELAALQLLPRLNEGLVITQGFIGSENKGRTTTLGRGGSDYTAALLAEALHASRVDIWTDVPGIYTTDPRVVSAAKRIDEIAFAEAAEMATFGAKVLHPATLLPAVRSDIPVFVGSSKDPRAGGTLVCNKTENPPLFRALALRRNQTLLTLHSLNMLHSRGFLAEVFGILARHNISVDLITTSEVSVALTLDTTGSTSTGDTLLTQSLLMELSALCRVEVEEGLALVALIGNDLSKACAVGKEVFGVLEPFNIRMICYGASSHNLCFLVPGEDAEQVVQKLHSNLFEEGHHHHHH | soluble
MSLSERIIVTYQVAAAPAEIAARAEALAIEQSVECPLAAVTEQQIRDEIVGRVEAIAPIGETRFSVRVSLASATAPAEPGQLLNMLFGNSSIQPDVTLADVELPPAYPAAFGGPKLGISGLRAKLGAPRRALTGSALKPQGLAPEALAGLAHRLALGGVDLIKDDHGIADQAFSPFAARVPAVARAMREACAVRGAAMLYAPHVSGSLDDMRRQLDIVRREGLSVVMLMPMIVGLANFHLIAKEAEGLIVLAHPSLAGAQRIAPDLLLGKLFRLLGADATIFPHYGGRFAYTPETCRALADAARRDWHDLKPCLPVPAGGIAIDRIKELLAFYGTDVMLLIGGSLLAAGEQLTEHAARFTAEVASHGQEGHHHHHH | soluble
MSLSETLTLSDAKSIIENQIEELAKRNKEPEWMTKIRYKALEEFMKAPLNDPVIDEETLLNFIAKPEIEGIPEKVESLDDLPPEMKDLLDRLGINEVEQKYIAGLAVQTDTGVIYNQFLQEWAKKGLIVLPTEEAVRRYPDIMKEHFLKLFKAGESKLTAYHIAIWNGGIFLYVKENLKVPFPLHLFFLIQESSLAQAPHITIIAEKNSEVHLIEGCTAPILVRHSLHLDMTEAYLHENAKVRLTVLQNWPEYVHTRPMTRAKVGRNAEFINTTVSLGAGKSNIANPKYWVGENGYVELNGVILGQKDWYIDLGGEMHLQGEGGRGINASKSVIMDESTVITRGKIVAEAKKTKGHISCDALLLSDKARMETYPGLVSLVDEAELSHEAAIGKIKEEELFYLMSRGLSEEKATQLIVKGFVEPMLKDIPIEFVVEIKKIIELAVSGGFEGHHHHHH | soluble
MSLSETSEHPVDGDELLVRTVLSNQALKRIFTHRTDSMTECYQVEKTFLQSEQSLLIGHQLHPTPKSRQGIDEDEELLFTPERKGSFQLHYFRAACELVDEKSALADSASELIKHDLLHDPNVQDSFKASYCQADDYVLLPVHPLQARKLLGKKEIADLIQAGKLSYLGPQGRAFYPTSSLRTVYHPEAEYMYKFSIPVKITNSLRVNKRKELARGVEVSELLKNGLYDQLKAEHPAFNIVQDPAYITLSLDSEESGLETVIRENPFRQGGEERTTLLAALCQDSIQGNSHLTNLMVELAKQKKISVTEASKWWFSRYLNVSLRPLYWLYATHGIALEAHQQNSIIKLDAEGLPSLFYYRDNQGYYFMQSKAETLKQFVPTLNEQSDTICSDAVAEERFRYYVFFNHLFGLVNAFGTNRLIDEEQLLHILREELTLLRQQFGDPTNLVNSLLHEEMLPCKANLLTRIHDMDELEGSLATQSVYVPVPNPLVVMAGELHEGHHHHHH | soluble
MSLSEVSLRPAKISTVLPGSLGEEMGFEPGDAIVRINGQAPRDLIDYQFLCADDYLELDVLDSQGELHELAVEKEFDQDLGLGFETALFDGLIQCNNRCPFCFIDQQPPGKRESLYYKDDDYRLSFLYGSYLTLTNLSAKEWQRIEQLRLSPLYVSIHATEASVRERLLKNHRAGQILDQLAWFQARRLQIHAQVVVCPGVNDGKHLEQTLRDLAQFHQGETPAVISVAVVPVGLTRFRPQEDELSPVGQAKATEVIAQVQALQKEFAQQLGGNFVWLADEWFLIARQPLPPESHYEDYPQIGNGVGSIRQFIKEFQQQAAEFLPPAIAEAKTLTWVVGNAVEQAFELLVEQLNQVKGLTVNLAPLNSDYWGQEITVTGLLTGQDLIAKLAGRDLGDGILLPALMLKHDDTRFLDDLRVADVAQKLGTTIYPVADVASLLEHCVQPMAVSREGHHHHHH | soluble
MSLSFHEIRFPASLSFGSVGGPERRTDVVTLANGFEERNTPWAHSRRRYDAGMGMRSLDDIEALIAFFEARQGQIFGFRWKDWSDYKSARPTAEVDFRDQVIGLGDGVQTGFQLLKSYRSGDSIYPRPIAKPVDGTVRMGLGQEEIKEGIDFTLDPTTGMVVLSHPPENGIEVVAGFEFDVPVRFDTDRILTSVASFQAGDVPNVPVVEVRAEGHHHHHH | soluble
MSLSGDLIDGLRDLNVLVVQPHDGSTEELLKQIGRIGCNATAVWPFPQSIPDGTDMIFMEITHPLDANAVRLLGVESVDAPTVVGIIAYENPSVLKGIIDLKIDTVLAKPIRPFGVLSHMLMARSVCLARRRDEEELQKLRRKIQAIQKIADAKFILMRHHSINETEAYKIIRSQAMAKRTSTLEIAQSVINAESILSGMAPHDLTARMQSQTEGHHHHHH | not soluble
MSLSGIYEIAILGRATWQLHSLNNEGTVGNVTEPRSVRIIDPNTKKAVTTDGISGEMLKHIHTEIMWTLDDKNNLCDACKVLNPEKFNFAIKSKKATPKDVEDALKQALNTCDICDVQGFLLERPTASRKSTVEFGWALGIPEVYRDIHTHARHALGEKGKREKTEESEEEVGGVSTQMVYHRPTRSGVYAIISVFQPWRIGLNEAKQDKYTYDANDNARERRYQLALKAYPLLFARPEGAMTTTRLPHVEDFSGVIVYSTKPIPVPIISPLKSNYVDEVKTIVENIDDSLKVAEFNGIAEFAMKIGELIKNKPYKMEFEGHHHHHH | soluble
MSLSGPRNQILVSITDAPKIHILDPSTEYCVGDYVAYQLNGVAPFMIKYEFNGIPLKSKERSSQFVRLASEPGIISITSLQDSSSQCIVDFTNPKLKSEFDDLSLNIHPIPSVTVSQGNYVTEDIREGDQAEVIFSFEGTPPFSLTYVRTEETDGKHGKRRSQVVETHKVTDIYSHEYKVITSLQGTYEAIEITDAYCFAKNDLFFNNEGHHHHHH | soluble
MSLSGVVERITFVNEENGFSVVKIKSKGFSDLVTAVGNMASVNVGAVVSLRGEWKYDSKFGRQFNVYHYEESIPATVAGIEKYLGSGLIKGIGPVNAKRIVKVFKEDTIRVIEEEPDRLIEVPGIGKKRVEMIKEAWQNQKEIKNVMLFLQSHGVSTAFAVKIFKTYGSDSIKIVKENPYRLADDIWGIGFKTADKIAQNMGYDKESYARIRSGIMYALNEFANDGHCFAKKDELVNKASELLGVELEKVETAIQHMLEEKSVIMEEDDAVYLPPFYYSEVGVARRIREIIETKSMYSFYNFDGIIEDLQRECNIQYDEVQIEAIRKAVVSKFMVLTGGPGTGKTTTTLAIIKVFQKLGATVLLAAPTGRAAKRMSEATGMEAKTIHRLLEYSPQDGYKKNDDNPLECDVLIIDETSMIDIILMYNLLKAVSNNTVVILVGDVDQLASVGAGNVLKDIIESGMVTVVRLMRIFRQAMGSAIVTNAHKINHGEYPVLKGGKNSNFFFIEEEDPEKIVELVRELCSKRLPGYYKINPLNDIQVLCPMQKGVVGAQNLNTVLQETLNPCDISIKYGGTIYKLNDRVMQIKNNYDKNVFNGDMGIITDIDQEEKTVRIKFDDAEVEYDVTELDEVTLAYAVTVHKSQGSEYNFVVAPFTMQHYMMLQRNLLYTCVTRAKKVLVLIGSKKALGCCIRNSRSMDRNTKLAQRLKADTEGHHHHHH | soluble
MSLSHMANEMLLDIDGMDFVEDEDMGAEGELQFSFDPVSNAPMVSFPSTQQPDLEKLRFKFAPVLSRSFAFNGGSRTGTLYGVQVPYVDNSKEFSQYAAKLFEVYKSLGADKQFAVPTIGLINHTSTLEHNQTVNLALEAIVSELELFIESLKYSGRQQRLVDLEECLSILNCLKTVQFTLDSEEENSRAKFIDSLISWVNRTDGEPSEAVIAKVLGDGKQTPILENPYFWRLLCQLIIRGLFDQAVAAIEKSELLSYLADKCSATHTMVQDMVNLLQGYPRELEPVYREWKDLVLQLHLNWSQSEHKISIELASSLEDCLLIMCGNKSKIIYYSKTWYECYCGLMLYYIPSLQLSEEYLQLVLKEHPLDVTSPWEQACVSIITGKIYSILPVLDSLDSCTAAFTAAICEAKGLLENDLLDDGGLEVSNTGDEMFGLGNTMASYLLNQFALSIVTYEDKNLWAVAIGIIYLTPNYSDAAKRMMIAELLPHYPFQTNDDIEWMLTICAKWKLPQIARTIYRVLGQEALYLNNIIEAISNFSKAGEFEWVKHYSWMIFEASILQGAPLEDEVVNSIVTGEYESAIPKELVEVMVTPAMKQSLSPYAVLFNFFRATEDGRWAEALKLLLSLIEFTYLPPQYLILLIGRFLYPLFLQDESKMFKEQDVLRVIKALEQFHDRPDEITTAMYKELLVKVDTLPKDPLNLINAIRTKLSLKLCHQFMEGHHHHHH | not soluble
MSLSIFSHFQERFEATRQEEYSLQEYLDLCKQDKTAYASAAERLLMAIGEPELLDTSVDSRLSRIFSNKVIRRYPAFADFHGMEECIDQIVAFFRHAAQGLEEKKQILYLLGPVGGGKSSLAEKLKQLMEKVPFYAIKGSPVFESPLGLFNPDEDGAILEEDYGIPRRYLRSIMSPWATKRLNEFGGDISQFRVVKLYPSILNQIAIAKTEPGDENNQDISALVGKVDIRKLEEYPQNDADAYSYSGALCRANQGLMEFVEMFKAPIKVLHPLLTATQEGNYNSTEGLGALPYSGIILAHSNESEWHSFRNNKNNEAFIDRIYIVKVPYCLRVADEIKIYDKLLVNSSLAHAHCAPDTLKMLSQFSVLSRLKEPENSNIYSKMRVYDGENLKDTDPKAKSIQEYRDSAGVDEGMAGLSTRFAFKILSKVFNFDPHEVAANPVHLLYVLEQQIEQEQFQPETRERYLRFIKEYLAPRYVEFIGKEIQTAYLESYSEYGQNIFDRYVLYADFWIQDQEYRDPETGEILNRAALNEELEKIEKPAGISNPKDFRNEIVNFVLRARAGNNGKNPSWLSYEKLRVVIEKKMFSNTEDLLPVISFNAKASKEDQQKHNDFVKRMVERGYTEKQVRLLSEWYMRVRKSQEGHHHHHH | soluble
MSLSIKNIKRIITAWKPSTFETYKKTFEKYGGSVNMHPDVVSYFMIHHDWKFDFFHYEKDGDIKGSYFLCNGKQIGIMARRSYPLSSDEVLIPFSPHARCFFPDKTNKLSIINKQNIINATWKIARKKQNCIIKESFSPKFEKTRRNEIQRFIRNGGEIKCISQLSDKEISSSYISLFHSRFGGTLPCYEYDNLLMFISHLRELMFGHVLFWDNKPCAIDIVLKSESSCNVYYDVPNGAVLNDENCMKLSPGSVLMWLNIDKARRYCQDNNKKMIYSIGAFRPEWKYKLLWSVPCKVGKCLCEGHHHHHH | soluble
